Legend:
[1] = target: T1, N81A (human, UniProt Q9Y286); assay: flow cytometry on HEK-293T cells expressing the mutant; mean % of wild-type signal (range of duplicates)
T1 construct: clone of the siglec-7 mutation library; also called Siglec-7 N81A
Protocol: (§1) Shotgun mutagenesis epitope mapping of anti-siglec-7 antibodies was performed using an alanine-scanning library for the siglec-7 protein. […] Each of residues 19 to 353 was mutated, representing the siglec-7 extracellular domain, most to alanine, while alanine codons were mutated to serine. In total, 335 siglec-7 mutant expression constructs were generated, sequences confirmed, and arrayed into a 384-well plate, one mutant per well.
(§2) Cells were then incubated with MAbs diluted in 10% o normal goat serum (NGS) (Sigma-Aldrich, St. Louis, Mo.). Prior to library screening, primary MAb concentrations were determined using an independent immunofluorescence titration curve against cells expressing wild-type siglec-7 to ensure that signals were within the linear range of detection. MAbs were detected using 3.75 μg/ml AlexaFluor488-conjugated secondary antibody (Jackson immunoResearch Laboratories, Westgrove, Pa.) in 10% NGS. Cells were washed twice with PBS−/− and resuspended in Cellstripper (Cellgro, Manassas, Va.) with 0.1% BSA (Sigma-Aldrich, St. Louis, Mo.). Mean cellular fluorescence was detected using the Intellicyt high throughput flow cytometer (HTFC, Intellicyt, Albuquerque, N. Mex.). MAb reactivities against each mutant clone were calculated relative to wild-type siglec-7 protein reactivity by subtracting the signal from mock-transfected controls, and normalizing to the signal from wild-type siglec-7-transfected controls.

[2] = target: T2, R124A (human, UniProt Q9Y286); assay: as above
T2 construct: clone of the siglec-7 mutation library; also called Siglec-7 R124A
T2 sequence (Q9Y286 19-467 R124A limits assumed): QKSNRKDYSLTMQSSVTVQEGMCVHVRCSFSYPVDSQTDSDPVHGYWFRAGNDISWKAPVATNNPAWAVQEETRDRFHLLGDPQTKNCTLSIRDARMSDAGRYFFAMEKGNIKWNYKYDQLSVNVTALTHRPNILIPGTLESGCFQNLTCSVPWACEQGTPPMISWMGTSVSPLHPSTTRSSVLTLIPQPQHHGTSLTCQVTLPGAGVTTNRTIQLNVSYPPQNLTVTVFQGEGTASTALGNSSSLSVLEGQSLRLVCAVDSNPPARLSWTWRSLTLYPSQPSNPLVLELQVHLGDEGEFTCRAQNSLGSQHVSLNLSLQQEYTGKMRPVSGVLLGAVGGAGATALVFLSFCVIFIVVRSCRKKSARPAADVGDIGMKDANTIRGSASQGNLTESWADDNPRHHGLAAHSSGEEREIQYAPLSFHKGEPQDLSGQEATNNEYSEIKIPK
Protocol: as §1, §2

[3] = target: T3, Y50A (human, UniProt Q9Y286); assay: as above
T3 construct: clone of the siglec-7 mutation library; also called Siglec-7 Y50A
T3 sequence (Q9Y286 19-467 Y50A limits assumed): as the sequence (Q9Y286 19-467 R124A limits assumed) above, with Y32A, A106R counted along it
Protocol: as §1, §2

[4] = target: T4, S47A (human, UniProt Q9Y286); assay: as above
T4 construct: clone of the siglec-7 mutation library; also called Siglec-7 S47A
T4 sequence (Q9Y286 19-467 S47A limits assumed): as the sequence (Q9Y286 19-467 R124A limits assumed) above, with S29A, A106R counted along it
Protocol: as §1, §2

[5] = target: T5, T107A (human, UniProt Q9Y286); assay: as above
T5 construct: clone of the siglec-7 mutation library; also called Siglec-7 T107A
T5 sequence (Q9Y286 19-467 T107A limits assumed): as the sequence (Q9Y286 19-467 R124A limits assumed) above, with T89A, A106R counted along it
Protocol: as §1, §2

[6] = target: T6, W74A (human, UniProt Q9Y286); assay: as above
T6 construct: clone of the siglec-7 mutation library; also called Siglec-7 W74A
T6 sequence (Q9Y286 19-467 W74A limits assumed): as the sequence (Q9Y286 19-467 R124A limits assumed) above, with W56A, A106R counted along it
Protocol: as §1, §2

[7] = target: T7, M30A (human, UniProt Q9Y286); assay: as above
T7 construct: clone of the siglec-7 mutation library; also called Siglec-7 M30A
T7 sequence (Q9Y286 19-467 M30A limits assumed): as the sequence (Q9Y286 19-467 R124A limits assumed) above, with M12A, A106R counted along it
Protocol: as §1, §2

[8] = target: T8, V44A (human, UniProt Q9Y286); assay: as above
T8 construct: clone of the siglec-7 mutation library; also called Siglec-7 V44A
T8 sequence (Q9Y286 19-467 V44A limits assumed): as the sequence (Q9Y286 19-467 R124A limits assumed) above, with V26A, A106R counted along it
Protocol: as §1, §2

[9] = target: T9, K104A (human, UniProt Q9Y286); assay: as above
T9 construct: clone of the siglec-7 mutation library; also called Siglec-7 K104A
T9 sequence (Q9Y286 19-467 K104A limits assumed): as the sequence (Q9Y286 19-467 R124A limits assumed) above, with K86A, A106R counted along it
Protocol: as §1, §2

[10] = target: T10, R45A (human, UniProt Q9Y286); assay: as above
T10 construct: clone of the siglec-7 mutation library; also called Siglec-7 R45A
T10 sequence (Q9Y286 19-467 R45A limits assumed): as the sequence (Q9Y286 19-467 R124A limits assumed) above, with R27A, A106R counted along it
Protocol: as §1, §2

[11] = target: T11, I72A (human, UniProt Q9Y286); assay: as above
T11 construct: clone of the siglec-7 mutation library; also called Siglec-7 I72A
T11 sequence (Q9Y286 19-467 I72A limits assumed): as the sequence (Q9Y286 19-467 R124A limits assumed) above, with I54A, A106R counted along it
Protocol: as §1, §2

[12] = target: T12, F48A (human, UniProt Q9Y286); assay: as above
T12 construct: clone of the siglec-7 mutation library; also called Siglec-7 F48A
T12 sequence (Q9Y286 19-467 F48A limits assumed): as the sequence (Q9Y286 19-467 R124A limits assumed) above, with F30A, A106R counted along it
Protocol: as §1, §2

[13] = target: T13, M185A (human, UniProt Q9Y286); assay: as above
T13 construct: clone of the siglec-7 mutation library; also called Siglec-7 M185A
T13 sequence (Q9Y286 19-467 M185A limits assumed): as the sequence (Q9Y286 19-467 R124A limits assumed) above, with A106R, M167A counted along it
Protocol: as §1, §2

[14] = target: T14, T103A (human, UniProt Q9Y286); assay: as above
T14 construct: clone of the siglec-7 mutation library; also called Siglec-7 T103A
T14 sequence (Q9Y286 19-467 T103A limits assumed): as the sequence (Q9Y286 19-467 R124A limits assumed) above, with T85A, A106R counted along it
Protocol: as §1, §2

[15] = target: human Siglec-7 expressed on human cells (primary monocytes, dendritic cells, macrophages, NK cells, microglia, U937 cells, human cells of humanized mice) (human) (UniProt Q9Y286); assay: FACS, human primary macrophages; isotype control (background)
Chain of human Siglec-7 expressed on human cells (primary monocytes, dendritic cells, macrophages, NK cells, microglia, U937 cells, human cells of humanized mice) (human) (Q9Y286 19-467): as the sequence (Q9Y286 19-467 R124A limits assumed) above, with A106R counted along it

[16] = target: T15, Siglec-7-Fc (plate immobilized) (human, UniProt Q9Y286 19-357, limits assumed); assay: RBC solid adhesion assay, plate-coated Siglec-7-Fc; isotype control
T15 construct: also called Siglec-7-Fc protein; immobilized Siglec-7; not shown: Fc part
T15 sequence (Q9Y286 19-357 limits assumed): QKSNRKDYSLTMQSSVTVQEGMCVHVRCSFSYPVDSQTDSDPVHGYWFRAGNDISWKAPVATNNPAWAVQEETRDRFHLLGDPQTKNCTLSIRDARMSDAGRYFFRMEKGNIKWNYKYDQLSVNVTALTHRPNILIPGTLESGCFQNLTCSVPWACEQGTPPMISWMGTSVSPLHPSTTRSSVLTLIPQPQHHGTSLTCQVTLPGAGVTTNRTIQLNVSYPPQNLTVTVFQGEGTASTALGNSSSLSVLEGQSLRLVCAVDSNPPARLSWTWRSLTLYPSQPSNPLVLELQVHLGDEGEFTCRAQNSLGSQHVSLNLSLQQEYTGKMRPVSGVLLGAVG

[17] = target: human Siglec-7 expressed on human cells (primary monocytes, dendritic cells, macrophages, NK cells, microglia, U937 cells, human cells of humanized mice) (human) (UniProt Q9Y286); assay: cell-based or functional assay
[18] = target: human Siglec-7 expressed on human cells (primary monocytes, dendritic cells, macrophages, NK cells, microglia, U937 cells, human cells of humanized mice) (human) (UniProt Q9Y286); assay: FACS, human primary dendritic cells; isotype control (background)
[19] = target: human Siglec-7 expressed on human cells (primary monocytes, dendritic cells, macrophages, NK cells, microglia, U937 cells, human cells of humanized mice) (human) (UniProt Q9Y286); assay: FACS, human primary monocytes; isotype control (background)
[20] = target: human Siglec-7 expressed on human cells (primary monocytes, dendritic cells, macrophages, NK cells, microglia, U937 cells, human cells of humanized mice) (human) (UniProt Q9Y286); assay: FACS, human primary macrophages, 10 ug/ml mAb
[21] = target: T15, Siglec-7-Fc (plate immobilized); assay: RBC solid adhesion assay, plate-coated Siglec-7-Fc, antibody 0.5 or 1.0 ug/ml; % of RBC binding without antibody
Protocol: To determine which antibodies compete with ligand binding to Siglec-7, a red blood cell (RBC) solid adhesion assay was carried out in accordance with standard protocols (Kelm et al., Current Biology, 1994). Red blood cells are highly decorated with glycoproteins containing sialic acids: therefore, the ability of an antibody to block RBC binding to immobilized Siglec-7 can be used to determine ligand interference. Briefly, 5 μg/ml Siglec-7-Fc was coated overnight at RT in 96 well Immunolon plates, then washed with PBS, blocked for one hour with binding buffer (PBS containing %0.25 BSA 1 mM CaCl₂), Siglec-7 antibodies (0.5 μg/ml or 1.0 μg/ml) were bound for one hour at RT with gentle rocking. After removal of unbound antibody, red blood cells were added to each well at a concentration of 3.0×10⁶ cells per ml and incubated at RT for one hour. Unbound RBCs were then carefully washed off 3× with PBS, and water was added to each well for hypotonic lysis of bound RBCs. The plate was transferred to −80° C. for 10 minutes, followed by 37° C. for 15 minutes. Bound RBCs were detected by peroxidase activity, followed by 2N sulfuric acid to stop the reaction. Signal was detected at […]. Data was calculated as a percent of RBC binding to plate bound Siglec-7-Fc in the absence of antibody.

[22] = target: human Siglec-7 expressed on human cells (primary monocytes, dendritic cells, macrophages, NK cells, microglia, U937 cells, human cells of humanized mice) (human) (UniProt Q9Y286); assay: FACS, human primary monocytes, 10 ug/ml mAb
[23] = target: human Siglec-7 expressed on human cells (primary monocytes, dendritic cells, macrophages, NK cells, microglia, U937 cells, human cells of humanized mice) (human) (UniProt Q9Y286); assay: FACS, human primary dendritic cells, 10 ug/ml mAb

T1 sequence (Q9Y286 19-467 N81A limits assumed): as the sequence (Q9Y286 19-467 R124A limits assumed) above, with N63A, A106R counted along it

| Substance | Binding Reactivity (% WT) [1] [% WT] | Binding Reactivity (% WT) [2] [% WT] | Binding Reactivity (% WT) [3] [% WT] | Binding Reactivity (% WT) [4] [% WT] | Binding Reactivity (% WT) [5] [% WT] | Binding Reactivity (% WT) [6] [% WT] | Binding Reactivity (% WT) [7] [% WT] | Binding Reactivity (% WT) [8] [% WT] | Binding Reactivity (% WT) [9] [% WT] | Binding Reactivity (% WT) [10] [% WT] | Binding Reactivity (% WT) [11] [% WT] | Binding Reactivity (% WT) [12] [% WT] | Binding Reactivity (% WT) [13] [% WT] | Binding Reactivity (% WT) [14] [% WT] | Percent Siglec-7 Surface Expression, DCs [17] [%] | Percent Siglec-7 Surface Expression, Macrophages [17] [%] | Percent Siglec-7 Surface Expression, Microglia [17] [%] | Percent Siglec-7 Surface Expression, Monocytes [17] [%] | Percent Siglec-7 Surface Expression, NK cells [17] [%] | Percent Siglec-7 Surface Expression, U937 cells [17] [%] | other results |
| --- | --- | --- | --- | --- | --- | --- | --- | --- | --- | --- | --- | --- | --- | --- | --- | --- | --- | --- | --- | --- | --- |
| mIgG1 isotype control antibody | – | – | – | – | – | – | – | – | – | – | – | – | – | – | 101 | 100 | 88.7 | 96.2 | 99.6 | 102 | % Positive [15]: 21.7%; MFI [15]: 368; Percent RBC Binding to Siglec-7 [16]: 107%; % Positive [18]: 2.8%; MFI [18]: 83; % Positive [19]: 10.6%; MFI [19]: 115 |
| commercially available anti-Siglec-7 antibody Mab1138 (R&D Systems; Cat. No. MAB 1138) | – | – | – | – | – | – | – | – | – | – | – | – | – | – | 96.7 | 98.7 | 80.2 | 99.6 | 103 | 98.2 | % Positive [20]: 98.6%; MFI [20]: 4220; Percent RBC Binding to Siglec-7 [21]: 97.1%; % Positive [22]: 19.9%; MFI [22]: 175; % Positive [23]: 73.9%; MFI [23]: 1450 |

Second part, led by results:

| Binding Reactivity (% WT) [1] [% WT] | Binding Reactivity (% WT) [2] [% WT] | Binding Reactivity (% WT) [3] [% WT] | Binding Reactivity (% WT) [4] [% WT] | Binding Reactivity (% WT) [5] [% WT] | Binding Reactivity (% WT) [6] [% WT] | Binding Reactivity (% WT) [7] [% WT] | Binding Reactivity (% WT) [8] [% WT] | Binding Reactivity (% WT) [9] [% WT] | Binding Reactivity (% WT) [10] [% WT] | Binding Reactivity (% WT) [11] [% WT] | Binding Reactivity (% WT) [12] [% WT] | Binding Reactivity (% WT) [13] [% WT] | Binding Reactivity (% WT) [14] [% WT] | Percent Siglec-7 Surface Expression, DCs [17] [%] | Percent Siglec-7 Surface Expression, Macrophages [17] [%] | Percent Siglec-7 Surface Expression, Microglia [17] [%] | Percent Siglec-7 Surface Expression, Monocytes [17] [%] | Percent Siglec-7 Surface Expression, NK cells [17] [%] | Percent Siglec-7 Surface Expression, U937 cells [17] [%] | Substance | other results |
| --- | --- | --- | --- | --- | --- | --- | --- | --- | --- | --- | --- | --- | --- | --- | --- | --- | --- | --- | --- | --- | --- |
| 5.6 | 115 | 142 | 118 | 129 | 83.7 | 100 | 89.3 | 115 | 126 | 101 | 158 | 74.3 | 106 | – | – | – | – | – | – | S7.7 MAb (antibody) | – |
| – | – | – | – | – | – | – | – | – | – | – | – | – | – | 100 | 100 | 88.8 | 96.2 | 101 | 99.3 | mIgG2b isotype control antibody | % Positive [15]: 79.5%; MFI [15]: 2060; Percent RBC Binding to Siglec-7 [16]: 102%; % Positive [18]: 5%; MFI [18]: 130; % Positive [19]: 13.9%; MFI [19]: 128 |
| 112 | 126 | 97.9 | 101 | 66.8 | 74.9 | 84.8 | 68 | 83.8 | 112 | 64.2 | 113 | 69.3 | 77.5 | – | – | – | – | – | – | 6-434 MAb (antibody) | – |

Reference: patent publication US20200277374A1 (Alector, published 2020)
